In patent US20210130437A1 (ALPINE IMMUNE SCIENCES, published 2021):

What was measured:
[1] = molecular target: T1, PD-1 stably expressed on Jurkat/IL-2 reporter cells (Jurkat/PD-1) (human, UniProt Q15116 21-288); experiment: culture supernatant on PD-1+ Jurkat cells, surface bound PD-L2 detected with anti-his-APC by flow cytometry
T1 construct: also called Jurkat/PD-1 cells; PD-1+ Jurkat cells

[2] = molecular target: T2, human TIGIT expressed on cells (Jurkat/TIGIT cells) (human, UniProt Q495A1 22-244); experiment: flow cytometry, Jurkat/TIGIT cells
T2 sequence: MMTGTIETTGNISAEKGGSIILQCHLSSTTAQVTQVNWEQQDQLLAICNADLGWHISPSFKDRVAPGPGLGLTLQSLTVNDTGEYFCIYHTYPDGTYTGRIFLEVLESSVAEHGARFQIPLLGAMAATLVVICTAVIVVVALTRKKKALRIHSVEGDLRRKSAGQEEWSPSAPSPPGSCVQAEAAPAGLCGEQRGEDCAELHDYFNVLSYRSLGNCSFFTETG

[3] = molecular target: T3, human PD-1 expressed on cells (Jurkat/PD-1 cells) (human, UniProt Q15116 21-288); experiment: flow cytometry, Jurkat/PD-1 cells
T3 construct: also called PDCD1
T3 sequence (Q15116 21-288): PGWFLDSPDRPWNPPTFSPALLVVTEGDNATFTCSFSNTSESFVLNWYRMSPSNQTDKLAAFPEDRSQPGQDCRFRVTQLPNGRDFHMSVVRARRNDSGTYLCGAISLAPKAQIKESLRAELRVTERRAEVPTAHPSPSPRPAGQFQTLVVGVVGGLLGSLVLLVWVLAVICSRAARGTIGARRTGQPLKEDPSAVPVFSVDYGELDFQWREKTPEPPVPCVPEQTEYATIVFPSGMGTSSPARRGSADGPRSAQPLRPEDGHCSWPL

T1 sequence (Q15116 21-288): as above

B1: PD-L2 SIP with wildtype PD-L2 IgV (SEQ ID NO:115), Avitag and His tag (ligand)
chain: LFTVTVPKELYIIEHGSNVTLECNFDTGSHVNLGAITASLQKVENDTSPHRERATLLEEQLPLGKASFHIPQVQVRDEGQYQCIIIYGVAWDYKYLTLKVKAGLNDIFEAQKIEWHEHHHHHH
notes: also called PD-L2 secreted immunomodulatory protein
[1]
  binding result: binds

B2: PD-L2 SIP with variant PD-L2 IgV H15Q,T47A,K65R,S67L,Q82R,V89D (SEQ ID NO:328), Avitag and His tag (ligand)
chain: LFTVTVPKELYIIEQGSNVTLECNFDTGSHVNLGAITASLQKVENDASPHRERATLLEEQLPLGRALFHIPQVQVRDEGQYRCIIIYGDAWDYKYLTLKVKAGLNDIFEAQKIEWHEHHHHHH
notes: also called variant PD-L2 SIP
[1]
  binding result: binds

B3: PD-L2 SIP with variant PD-L2 IgV H15Q,T47A,S67L,R76G,Q82R,V89D (SEQ ID NO:342), Avitag and His tag (ligand)
chain: LFTVTVPKELYIIEQGSNVTLECNFDTGSHVNLGAITASLQKVENDASPHRERATLLEEQLPLGKALFHIPQVQVGDEGQYRCIIIYGDAWDYKYLTLKVKAGLNDIFEAQKIEWHEHHHHHH
notes: also called variant PD-L2 SIP
[1]
  binding result: binds

B4: PD-L2/CD155 Stack 1 (Fc fusion)
chain: WPPPGTGDVVVQAPTQVSGFLGDSVTLPCYLQVPNMEVTHVSQLTWARHGESGSMAVFHQTQGPWYAESKRLEFVAARLGAELRNASLRMFGLRVEDEGNYTCQFVTFPQRSRSVDIWLRVLGGGGSGGGGSEPKSSDKTHTCPPCPAPEAEGAPSVFLFPPKPKDTLMISRTPEVTCVVVDVSHEDPEVKFNWYVDGVEVHNAKTKPREEQYNSTYRVVSVLTVLHQDWLNGKEYKCKVSNKALPAPIEKTISKAKGQPREPQVYTLPPSRDELTKNQVSLTCLVKGFYPSDIAVEWESNGQPENNYKTTPPVLDSDGSFFLYSKLTVDKSRWQQGNVFSCSVMHEALHNHYTQKSLSLSPGKGGGGSGGGGSGGGGSLFTVTVPKELYIIEQGSNVTLECNFDTGSHVNLGAITASLQKVENDASPHRERATLLEEQLPLGRALFHIPQVQVRDEGQYRCIIIYGDAWDYKYLTLKVKA
notes: Homodimer; also called (CD155 IgV)-(G4S)2-Fc-(G4S)3 (PD-L2 IgV)
[2]
  MFI at 6.25 nM: 19900 MFI

B5: PD-L2/CD155 Stack 2 (Fc fusion)
chain: LFTVTVPKELYIIEQGSNVTLECNFDTGSHVNLGAITASLQKVENDASPHRERATLLEEQLPLGRALFHIPQVQVRDEGQYRCIIIYGDAWDYKYLTLKVKAGGGGSGGGGSEPKSSDKTHTCPPCPAPEAEGAPSVFLFPPKPKDTLMISRTPEVTCVVVDVSHEDPEVKFNWYVDGVEVHNAKTKPREEQYNSTYRVVSVLTVLHQDWLNGKEYKCKVSNKALPAPIEKTISKAKGQPREPQVYTLPPSRDELTKNQVSLTCLVKGFYPSDIAVEWESNGQPENNYKTTPPVLDSDGSFFLYSKLTVDKSRWQQGNVFSCSVMHEALHNHYTQKSLSLSPGKGGGGSGGGGSGGGGSWPPPGTGDVVVQAPTQVSGFLGDSVTLPCYLQVPNMEVTHVSQLTWARHGESGSMAVFHQTQGPWYAESKRLEFVAARLGAELRNASLRMFGLRVEDEGNYTCQFVTFPQRSRSVDIWLRVL
notes: Homodimer; also called (PD-L2 IgV) (G4S)2 Fc (G4S)3 (CD155 IgV)
[3]
  MFI at 6.25 nM: 16300 MFI
[2]
  MFI at 6.25 nM: 9100 MFI

B6: PD-L2/CD155 Stack 3 (Fc fusion)
chain: WPPPGTGDVVVQAPTQVSGFLGDSVTLPCYLQVPNMEVTHVSQLTWARHGESGSMAVFHQTQGPWYAESKRLEFVAARLGAELRNASLRMFGLRVEDEGNYTCQFVTFPQRSRSVDIWLRVLGGGGSGGGGSGGGGSLFTVTVPKELYIIEQGSNVTLECNFDTGSHVNLGAITASLQKVENDASPHRERATLLEEQLPLGRALFHIPQVQVRDEGQYRCIIIYGDAWDYKYLTLKVKAGGGGSGGGGSEPKSSDKTHTCPPCPAPEAEGAPSVFLFPPKPKDTLMISRTPEVTCVVVDVSHEDPEVKFNWYVDGVEVHNAKTKPREEQYNSTYRVVSVLTVLHQDWLNGKEYKCKVSNKALPAPIEKTISKAKGQPREPQVYTLPPSRDELTKNQVSLTCLVKGFYPSDIAVEWESNGQPENNYKTTPPVLDSDGSFFLYSKLTVDKSRWQQGNVFSCSVMHEALHNHYTQKSLSLSPGK
notes: Homodimer; also called (CD155 IgV) (G4S)3 (PD-L2 IgV) (G4S)2 Fc
[3]
  MFI at 6.25 nM: 91 MFI
[2]
  MFI at 6.25 nM: 22300 MFI

B7: PD-L2/CD155 Stack 4 (Fc fusion)
chain: LFTVTVPKELYIIEQGSNVTLECNFDTGSHVNLGAITASLQKVENDASPHRERATLLEEQLPLGRALFHIPQVQVRDEGQYRCIIIYGDAWDYKYLTLKVKAGGGGSGGGGSGGGGSWPPPGTGDVVVQAPTQVSGFLGDSVTLPCYLQVPNMEVTHVSQLTWARHGESGSMAVFHQTQGPWYAESKRLEFVAARLGAELRNASLRMFGLRVEDEGNYTCQFVTFPQRSRSVDIWLRVLGGGGSGGGGSEPKSSDKTHTCPPCPAPEAEGAPSVFLFPPKPKDTLMISRTPEVTCVVVDVSHEDPEVKFNWYVDGVEVHNAKTKPREEQYNSTYRVVSVLTVLHQDWLNGKEYKCKVSNKALPAPIEKTISKAKGQPREPQVYTLPPSRDELTKNQVSLTCLVKGFYPSDIAVEWESNGQPENNYKTTPPVLDSDGSFFLYSKLTVDKSRWQQGNVFSCSVMHEALHNHYTQKSLSLSPGK
notes: Homodimer; also called (PD-L2 IgV) (G4S)3 (CD155 IgV) (G4S)2 Fc
[3]
  MFI at 6.25 nM: 9220 MFI
[2]
  MFI at 6.25 nM: 14500 MFI

B8: PD-L2/CD155 Stack 5 (Fc fusion)
chain: EPKSSDKTHTCPPCPAPEAEGAPSVFLFPPKPKDTLMISRTPEVTCVVVDVSHEDPEVKFNWYVDGVEVHNAKTKPREEQYNSTYRVVSVLTVLHQDWLNGKEYKCKVSNKALPAPIEKTISKAKGQPREPQVYTLPPSRDELTKNQVSLTCLVKGFYPSDIAVEWESNGQPENNYKTTPPVLDSDGSFFLYSKLTVDKSRWQQGNVFSCSVMHEALHNHYTQKSLSLSPGKGGGGSGGGGSGGGGSWPPPGTGDVVVQAPTQVSGFLGDSVTLPCYLQVPNMEVTHVSQLTWARHGESGSMAVFHQTQGPWYAESKRLEFVAARLGAELRNASLRMFGLRVEDEGNYTCQFVTFPQRSRSVDIWLRVLGGGGSGGGGSGGGGSLFTVTVPKELYIIEQGSNVTLECNFDTGSHVNLGAITASLQKVENDASPHRERATLLEEQLPLGRALFHIPQVQVRDEGQYRCIIIYGDAWDYKYLTLKVKA
notes: Homodimer; also called Fc (G4S)3 (CD155 IgV) (G4S)3 (PD-L2 IgV)
[3]
  MFI at 6.25 nM: 108 MFI
[2]
  MFI at 6.25 nM: 5490 MFI

B9: PD-L2/CD155 Stack 6 (Fc fusion)
chain: EPKSSDKTHTCPPCPAPEAEGAPSVFLFPPKPKDTLMISRTPEVTCVVVDVSHEDPEVKFNWYVDGVEVHNAKTKPREEQYNSTYRVVSVLTVLHQDWLNGKEYKCKVSNKALPAPIEKTISKAKGQPREPQVYTLPPSRDELTKNQVSLTCLVKGFYPSDIAVEWESNGQPENNYKTTPPVLDSDGSFFLYSKLTVDKSRWQQGNVFSCSVMHEALHNHYTQKSLSLSPGKGGGGSGGGGSGGGGSLFTVTVPKELYIIEQGSNVTLECNFDTGSHVNLGAITASLQKVENDASPHRERATLLEEQLPLGRALFHIPQVQVRDEGQYRCIIIYGDAWDYKYLTLKVKAGGGGSGGGGSGGGGSWPPPGTGDVVVQAPTQVSGFLGDSVTLPCYLQVPNMEVTHVSQLTWARHGESGSMAVFHQTQGPWYAESKRLEFVAARLGAELRNASLRMFGLRVEDEGNYTCQFVTFPQRSRSVDIWLRVL
notes: Homodimer; also called Fc (G4S)3 (PD-L2 IgV) (G4S)3 (CD155 IgV)
[3]
  MFI at 6.25 nM: 66 MFI
[2]
  MFI at 6.25 nM: 9970 MFI

B10: Wild Type CD155 full ECD Fc (Fc fusion)
chain: WPPPGTGDVVVQAPTQVPGFLGDSVTLPCYLQVPNMEVTHVSQLTWARHGESGSMAVFHQTQGPSYSESKRLEFVAARLGAELRNASLRMFGLRVEDEGNYTCLFVTFPQGSRSVDIWLRVLAKPQNTAEVQKVQLTGEPVPMARCVSTGGRPPAQITWHSDLGGMPNTSQVPGFLSGTVTVTSLWILVPSSQVDGKNVTCKVEHESFEKPQLLTVNLTVYYPPEVSISGYDNNWYLGQNEATLTCDARSNPEPTGYNWSTTMGPLPPFAVAQGAQLLIRPVDKPINTTLICNVTNALGARQAELTVQVKEGPPSEHSGISRN
notes: not shown: Fc and linker not specified
[3]
  MFI at 6.25 nM: 64 MFI

B11: Wild Type PD-L2 full ECD Fc (Fc fusion)
chain: LFTVTVPKELYIIEHGSNVTLECNFDTGSHVNLGAITASLQKVENDTSPHRERATLLEEQLPLGKASFHIPQVQVRDEGQYQCIIIYGVAWDYKYLTLKVKASYRKINTHILKVPETDEVELTCQATGYPLAEVSWPNVSVPANTSHSRTPEGLYQVTSVLRLKPPPGRNFSCVFWNTHVRELTLASIDLQSQMEPRTHPT
notes: as for B10
[2]
  MFI at 6.25 nM: 46 MFI
